Measured values as given in US20240083986A1 (published 2024).

T1: natural Bet v 1 (Indoor, Cat #NA-BV1-1) (Betula verrucosa (European white birch, …, UniProt P15494 2-160))
T1 construct: Bought natural protein purified from birch pollen; also called nBet v 1
T1 sequence: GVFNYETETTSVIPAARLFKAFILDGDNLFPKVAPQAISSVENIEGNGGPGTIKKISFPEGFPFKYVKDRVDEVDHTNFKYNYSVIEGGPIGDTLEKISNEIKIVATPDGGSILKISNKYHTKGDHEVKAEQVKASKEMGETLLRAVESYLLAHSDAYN

T2: Apple (Mal d 1, MyBiosource, Cat #MBS1224919) (Apple, UniProt P43211 2-159, limits assumed)
T2 construct: Bought reagent
T2 sequence (looked up): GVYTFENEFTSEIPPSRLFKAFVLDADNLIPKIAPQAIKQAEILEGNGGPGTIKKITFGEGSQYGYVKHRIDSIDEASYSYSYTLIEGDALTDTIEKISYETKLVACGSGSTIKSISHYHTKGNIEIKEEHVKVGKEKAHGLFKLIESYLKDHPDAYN

T3: Celery (Api g 1, MyBiosource, Cat #MBS1171376) (Celery, UniProt P49372 1-154, limits assumed)
T3 construct: Bought reagent
T3 sequence (looked up): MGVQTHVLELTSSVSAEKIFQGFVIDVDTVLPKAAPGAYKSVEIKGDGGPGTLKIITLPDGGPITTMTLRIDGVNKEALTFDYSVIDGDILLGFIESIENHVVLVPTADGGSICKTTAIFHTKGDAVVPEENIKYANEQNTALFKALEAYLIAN

T4: European Hornbeam (Car b 1 isoform 1A & 1B, MyBiosource, Cat #MBS1200018) (European Hornbeam, UniProt P38949 2-160)
T4 construct: Bought reagent
T4 sequence (looked up): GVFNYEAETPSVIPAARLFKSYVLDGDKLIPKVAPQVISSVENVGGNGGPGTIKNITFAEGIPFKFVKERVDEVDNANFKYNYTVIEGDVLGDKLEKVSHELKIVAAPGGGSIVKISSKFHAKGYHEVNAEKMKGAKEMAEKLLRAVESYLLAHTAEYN

T5: Celery (Api g 1, MyBiosource, Cat #MBS1171376) (Celery, UniProt P49372 1-154, limits assumed)
T5 construct: Bought reagent
T5 sequence (looked up): T3 sequence (looked up)

T6: Alder (Aln g 1, MyBiosource, Cat #MBS1041484) (Alder, UniProt P38948 2-160, limits assumed)
T6 construct: Bought reagent
T6 sequence (looked up): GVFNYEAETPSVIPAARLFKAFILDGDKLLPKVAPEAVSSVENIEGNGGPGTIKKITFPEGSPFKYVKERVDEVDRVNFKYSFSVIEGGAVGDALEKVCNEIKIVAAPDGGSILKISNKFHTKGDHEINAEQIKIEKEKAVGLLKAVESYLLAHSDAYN

T7: Apple (Mal d 1, MyBiosource, Cat #MBS1224919) (Apple, UniProt P43211 2-159, limits assumed)
T7 construct: Bought reagent
T7 sequence (looked up): T2 sequence (looked up)

T8: CHO produced recombinant Bet v 1 containing a S85A mutation with a C-terminal myc-myc hexahistidine tag … (Betula verrucosa (birch))
T8 chain: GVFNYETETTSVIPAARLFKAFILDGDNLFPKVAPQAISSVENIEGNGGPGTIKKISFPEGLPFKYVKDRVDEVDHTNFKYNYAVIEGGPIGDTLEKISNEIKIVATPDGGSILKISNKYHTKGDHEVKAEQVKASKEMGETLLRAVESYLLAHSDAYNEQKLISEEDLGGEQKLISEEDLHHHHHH

T9: European Hornbeam (Car b 1 isoform 2, MyBiosource, Cat #MBS1043940) (European Hornbeam, UniProt P38950 2-160, limits assumed)
T9 construct: Bought reagent
T9 sequence (looked up): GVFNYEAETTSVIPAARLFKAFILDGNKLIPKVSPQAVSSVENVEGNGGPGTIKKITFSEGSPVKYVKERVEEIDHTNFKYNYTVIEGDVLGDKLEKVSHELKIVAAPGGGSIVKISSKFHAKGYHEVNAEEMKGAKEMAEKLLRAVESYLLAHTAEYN

T10: European Hornbeam (Car b 1 isoform 1A & 1B, MyBiosource, Cat #MBS1200018) (European Hornbeam, UniProt P38949 2-160)
T10 construct: Bought reagent
T10 sequence (looked up): T4 sequence (looked up)

T11: Alder (Aln g 1, MyBiosource, Cat #MBS1041484) (Alder, UniProt P38948 2-160, limits assumed)
T11 construct: Bought reagent
T11 sequence (looked up): T6 sequence (looked up)

B1: H4H17028P (antibody, human IgG4, V domains shown)
VH: QVQLVESGGGVVQPGRSLRLSCAASGFTFSRYAIHWVRQAPGKGLEWVAVISYDGDDKYYGDSVKGRFTISRDNSKTMVYLHMNSLRTEDTAVYYCAKDGYSLYGKDYFDYWGQGTLVTVSS
VL: EIVLTQSPGTLPLSPGERATLSCRASQSITNSYLAWYQQKPDQAPRLLIYGASSRATGIPDRFSGSESGTDFTLTISRLEPEDFAVYYCQQYVRSPWTFGQGTKVEIK
B2: H4H17027P (antibody, human IgG4, V domains shown)
VH: EVQLVESGGGLVQPGGSLRLSCAASGFTFRNYAMHWVRQAPGEGLEWVAAIYRNSDSIDYADSVKGRFTISRDNAKNSLYLQMNSLKTEDTALYYCAKDEGFLEYFDSWGQGTLVTVSS
VL: EIVLTQSPGTLSLSPGERASLSCRASQSVSSSFLAWYQQKPGQAPRLLIYGVSSRFIGIPDRFSGGGSGTDFTLTITRLEPEDFAVYYCQQYGRSPWTFGQGTKVEIK
B3: H4H16987P (antibody, human IgG4 S228P, kappa, V domains shown)
VH: EVQLVESGGGLVQPGGSLRLSCAASGFTVSSNSMSWVRQAPGEGLEWVSVIFSGGITYYSDSVKGRFTISRHNSKNTLYLQMNSLRTEDTAVYYCARHSNWNFDAFDIWGQGTMVTVSS
VL: DIQMTQSPSSLSASVGDRVTITCRASQSFDTYLNWYQQKPGKAPNLLIYATSSLQSGVPSRFSGSGSGTDFTLTISSLQPEDFGTYYCQQSYSIPYTFGQGTKLEIKR
notes: human IgG4; also called MAB4
B4: H4H17067P2 (antibody, human IgG4, V domains shown)
VH: EVQLVQSGAEVKKPGESLKISCSGSGYRFTNYWIAWVRQMPGKGLEWMGLIHPDDSDIRYSPSFQGQVTFSVDKSINTAYLQWSSLKASDTAMYYCTRQDGILWSHNAWFDPWGQGTLVTVSS
VL: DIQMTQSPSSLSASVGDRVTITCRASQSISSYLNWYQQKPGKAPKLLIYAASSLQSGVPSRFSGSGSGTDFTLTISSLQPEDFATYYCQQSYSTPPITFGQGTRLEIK
notes: Fully human antibody with human IgG4 Fc (H4H prefix)
B5: H4H17031P (antibody, human IgG4, V domains shown)
VH: QVQLQQWGAGLLKPSETLSLTCVVYGESFGNYHWNWIRQSPGKRLEWIGEINQNGHTNYNPSLKSRVTISVDTSKIQFSLRLNSVTAADTAVYFCARGHNYVNSYFGLDVWGQGTTVTVSS
VL: EIVMTQSPATLSVSPGERATLSCRTSQSVSISLAWYQRKPGQAPRLLIFGSSTRATGVPARFSGSGSGTEFTLTISSLQSEDFAVYYCQQYNNWPYTFGQGTKLEIK
B6: H4H16971P (antibody, human IgG4, V domains shown)
VH: QVQLVESGGGVVQPGRSLRLSCAASGFTFSSYGLHWVRQAPGKGLEWVAVISDDGSYKFYADSMKGRFTISRDNSKNTLYLQMNSLRAEDTAVYYCAKDRGRSGWYYFDYWGQGTLVTVSS
VL: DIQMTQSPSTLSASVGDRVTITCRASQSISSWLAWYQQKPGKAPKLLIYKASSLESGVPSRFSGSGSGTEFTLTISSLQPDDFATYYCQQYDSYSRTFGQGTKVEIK
B7: H4H16992P (antibody, human IgG4 S228P, kappa, V domains shown)
VH: QVQLQESGPGLVKPSETLSLTCSVSGGSITNYFWTWIRQSPGKGLEWIGYIYYSGGTNYNPSLKSRVTISIDTSKNQFSLNMNSVTAADTAVYYCAGSYYYGVDVWGQGTTVTVSS
VL: EIVLTQSPATLSLSPGERATLSCRASQSIKSFLAWYRQKPGQAPRLLIYDASNRPTGIPARFSGSGSGTDFTLTINSLESEDFAVYFCQQRNNWPFTFGPGTKVDIKR
notes: human IgG4; also called REGN5713; MAB1

How the values were obtained:
[1] = target: T1, natural Bet v 1 (Indoor, Cat #NA-BV1-1); assay: SPR Biacore, mAb captured on anti-hFc, 25C;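 further: rate constants from sensorgrams fitted to a 1:1 model with mass transport limitation, KD and t½ derived from kinetic constants, run in HBS-ET buffer at pH 7.4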
Method: (§1) Equilibrium dissociation constants (KD) for natural Bet v 1 binding to purified anti-Bet v 1 monoclonal antibodies were determined using a real-time surface plasmon resonance biosensor (SPR-Biacore) on a Biacore 4000 instrument. All binding studies were performed in 10 mM HEPES, 150 mM NaCl, 3 mM EDTA, and 0.05% v/v surfactant Tween-20, pH 7.4 (HBS-ET) running buffer at 25° C. and 37° C. […] Association (kₐ) and dissociation (kd) rate constants were determined by fitting the real-time binding sensorgrams to a 1:1 binding model with mass transport limitation using Scrubber 2.0c curve-fitting software. Binding dissociation equilibrium constants (KD) and dissociative half-lives (t½) were calculated from the kinetic rate constants as:

[2] = target: T1, natural Bet v 1 (Indoor, Cat #NA-BV1-1); assay: SPR Biacore, mAb captured on anti-hFc, 37C;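 further: purified anti-Bet v 1 monoclonal antibodies, HBS-ET running buffer pH 7.4, rate constants from 1:1 model fit with mass transport limitation, KD and t½ calculated from kinetic constants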
Method: as §1

[3] = target: T2, Apple (Mal d 1, MyBiosource, Cat …); assay: SPR Biacore, 25C;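 further: binding of related allergens to purified monoclonal anti-Bet v 1 antibodies by surface plasmon resonance in HEPES-buffered saline pH 7.4, kinetics fitted to a 1:1 model with mass transport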
[4] = target: T3, Celery (Api g 1, MyBiosource, Cat …); assay: SPR Biacore, 25C;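 further: binding of related allergens to purified monoclonal anti-Bet v 1 antibodies by surface plasmon resonance in HEPES-buffered saline pH 7.4, kinetics fitted to a 1:1 model with mass transport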
[5] = target: T4, European Hornbeam (Car b 1 isoform 1A & …); assay: SPR Biacore, 25C;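 further: binding of related allergens to purified monoclonal anti-Bet v 1 antibodies by surface plasmon resonance in HEPES-buffered saline pH 7.4, kinetics fitted to a 1:1 model with mass transport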
[6] = target: T5, Celery (Api g 1, MyBiosource, Cat …); assay: SPR, mAb captured via anti-hFc, 25 C
[7] = target: T6, Alder (Aln g 1, MyBiosource, Cat …); assay: SPR, mAb captured via anti-hFc, 25 C
Method: (§2) Equilibrium dissociation constants (KD) for different related allergens binding to purified anti-Bet v 1 monoclonal antibodies were determined using a real-time surface plasmon resonance biosensor (SPR-Biacore) on a Biacore 4000 instrument. All binding studies were performed in 10 mM HEPES, 150 mM NaCl, 3 mM EDTA, and 0.05% v/v surfactant Tween-20, pH 7.4 (HBS-ET) running buffer at 25° C. […] Binding studies were performed on the following related allergens: Alder (Aln g 1, MyBiosource, Cat #MBS1041484), Apple (Mal d 1, MyBiosource, Cat #MBS1224919), Carrot (Dau c 1.2, MyBiosource, Cat #MBS1212920), Celery (Api g 1, MyBiosource, Cat #MBS1171376), Celery (Api g 2, MyBiosource, Cat #MBS1047880), European Hornbeam (Car b 1 isoform 1A & 1B, MyBiosource, Cat #MBS1200018), European Hornbeam (Car b 1 isoform 2, MyBiosource, Cat #MBS1043940), Hazel (Cor A 1, MyBiosource, Cat #MBS5304600), and White Oak (Que a 1, MyBiosource, Cat #MBS1258822). […] Association (kₐ) and dissociation (kd) rate constants were determined by fitting the real-time binding sensorgrams to a 1:1 binding model with mass transport limitation using Scrubber 2.0c curve-fitting software. Binding dissociation equilibrium constants (KD) and dissociative half-lives (t½) were calculated from the kinetic rate constants as:

[8] = target: T7, Apple (Mal d 1, MyBiosource, Cat …); assay: SPR, mAb captured via anti-hFc, 25 C
Method: as §2

[9] = target: T8, CHO produced recombinant Bet v 1 …; assay: SPR, mAb captured via anti-hFc, 37 C
Method: as §1

[10] = target: T9, European Hornbeam (Car b 1 isoform 2, …); assay: SPR, mAb captured via anti-hFc, 25 C
Method: as §2

[11] = target: T8, CHO produced recombinant Bet v 1 …; assay: SPR, mAb captured via anti-hFc, 25 C
[12] = target: T10, European Hornbeam (Car b 1 isoform 1A & …); assay: SPR, mAb captured via anti-hFc, 25 C
[13] = target: T11, Alder (Aln g 1, MyBiosource, Cat …); assay: SPR Biacore, 25C;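 further: binding of related allergens to purified monoclonal anti-Bet v 1 antibodies by surface plasmon resonance in HEPES-buffered saline pH 7.4, kinetics fitted to a 1:1 model with mass transport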

Binder | 100 nM natural Bet v 1 Bound (RU) [1] | Kd [1] | koff [1] | kon [1] | t½ [1] | 100 nM natural Bet v 1 Bound (RU) [2] | Kd [2] | koff [2] | kon [2] | t½ [2] | binding result [3] | binding result [4] | further results
B1 | 63 RU | 3.79 nM | 0.00107 s⁻¹ | 281000 M⁻¹ s⁻¹ | 11 min | 71 RU | 7.77 nM | 0.0029 s⁻¹ | 373000 M⁻¹ s⁻¹ | 3.9 min | no binding (tested: 100 nM) | no binding (tested: 100 nM) | 
B2 | 48 RU | 4.32 nM | 0.00027 s⁻¹ | 62400 M⁻¹ s⁻¹ | 43 min | 67 RU | 9.48 nM | 0.00093 s⁻¹ | 98100 M⁻¹ s⁻¹ | 12 min | no binding (tested: 100 nM) | no binding (tested: 100 nM) | 
B3 | 61 RU | 2.77 nM | 0.00114 s⁻¹ | 410000 M⁻¹ s⁻¹ | 10 min | 74 RU | 9.16 nM | 0.00477 s⁻¹ | 520000 M⁻¹ s⁻¹ | 2.4 min | no binding (tested: 100 nM) | no binding (tested: 100 nM) | binding result [5]: no binding (tested: 100 nM)
B4 |  |  |  |  |  |  |  |  |  |  |  |  | 100 nM Analyte Bound (RU) [6]: 0 RU; binding result [6]: no binding (tested: 100 nM); 100 nM Analyte Bound (RU) [7]: 2 RU; binding result [7]: no binding (tested: 100 nM); 100 nM Analyte Bound (RU) [8]: -1 RU; 100 nM natural Bet v 1-MHH Bound (RU) [9]: 76 RU; Kd [9]: 16.9 nM; koff [9]: 0.00428 s⁻¹; kon [9]: 253000 M⁻¹ s⁻¹; t½ [9]: 2.7 min; 100 nM Analyte Bound (RU) [10]: 1 RU; binding result [10]: no binding (tested: 100 nM); 100 nM natural Bet v 1- MMH Bound (RU) [11]: 55 RU; Kd [11]: 11.7 nM; koff [11]: 0.00117 s⁻¹; kon [11]: 100000 M⁻¹ s⁻¹; t½ [11]: 9.9 min; 100 nM Analyte Bound (RU) [12]: 0 RU; binding result [12]: no binding (tested: 100 nM)
B5 | 54 RU | 13.5 nM | 0.00168 s⁻¹ | 124000 M⁻¹ s⁻¹ | 6.8 min | 63 RU | 27.9 nM | 0.00544 s⁻¹ | 485000 M⁻¹ s⁻¹ | 2.1 min | no binding (tested: 100 nM) | no binding (tested: 100 nM) | 
B6 | 57 RU | 3.26 nM | 0.000781 s⁻¹ | 240000 M⁻¹ s⁻¹ | 15 min | 66 RU | 6.93 nM | 0.00244 s⁻¹ | 352000 M⁻¹ s⁻¹ | 4.7 min |  | no binding (tested: 100 nM) | binding result [5]: no binding (tested: 100 nM)
B7 |  |  |  |  |  |  |  |  |  |  | no binding (tested: 100 nM) | no binding (tested: 100 nM) | binding result [13]: no binding (tested: 100 nM)
